For this data set the following is noted: whole UniProt chain shown.
[1] abbreviates: Streptococcus phage Cp-1, pH 7, Thermal, DSC, phosphate 20 mM, reversible: no.
Where [2] appears, read: Streptococcus phage Cp-1, pH 7, Thermal, DSC, phosphate 20 mM, transition: 3, reversible: no.
Where [3] appears, read: Thermotoga maritima (strain ATCC 43589 / DSM 3109 / JCM 10099 / NBRC 100826 / MSB8), pH 6, 29 °C, Thermal, CD, sodium phosphate 50 mM, reversible: yes.
Where [4] appears, read: Sus scrofa, pH 6.5, Thermal, DSC, Sodium phosphate 5 mM, reversible: yes.
Setting [5] is: Staphylococcus aureus, pH 7, Thermal, CD, NaPP 0.1 M, reversible: yes.
[6] abbreviates: Staphylococcus aureus, pH 7, Thermal, Fluorescence, NaPP 0.1 M, reversible: yes.
The mark [7] stands for this setting: Thermus thermophilus (strain ATCC 27634 / DSM 579 / HB8), pH 5.5, 25 °C, Urea, CD, NaOAc 20 mM, KCl 50 mM, reversible: yes.
[8] abbreviates: Thermus thermophilus (strain ATCC 27634 / DSM 579 / HB8), pH 5.5, Thermal, CD, Sodium acetate 5 mM, KCl 50 mM, reversible: yes.
The mark [9] stands for this setting: Thermotoga maritima (strain ATCC 43589 / DSM 3109 / JCM 10099 / NBRC 100826 / MSB8), pH 7.4, 25 °C, GdnHCl, CD, sodium phosphate, transition: 2, reversible: yes.

Values joined by “and” are separate entries in the source; they are usually repeats but may differ in a detail not shown here. Identical values can stand only once.

For orientation: Tm means the temperature at the midpoint of the melting transition.

B1: Lysozyme wild type, P15057 (protein)
chain: MVKKNDLFVDVSSHNGYDITGILEQMGTTNTIIKISESTTYLNPCLSAQVEQSNPIGFYHFARFGGDVAEAEREAQFFLDNVPMQVKYLVLDYEDDPSGDAQANTNACLRFMQMIADAGYKPIYYSYKPFTHDNVDYQQILAQFPNSLWIAGYGLNDGTANFEYFPSMDGIRWWQYSSNPFDKNIVLLDDEEDDKPKTAGTWKQDSKGWWFRRNNGSFPYNKWEKIGGVWYYFDSKGYCLTSEWLKDNEKWYYLKDNGAMATGWVLVGSEWYYMDDSGAMVTGWVKYKNNWYYMTNERGNMVSNEFIKSGKGWYFMNTNGELADNPSFTKEPDGLITVA
As to B1, under setting [1], the Tm was determined as 42.9 °C, the “unfolding enthalpy (calorimetric)” value came out at 456 kJ/mol and the “unfolding enthalpy (van 't Hoff)” value amounted to 970 kJ/mol. Under setting [2], the Tm was determined as 43.5 °C, the “unfolding enthalpy (calorimetric)” value stood at 598 kJ/mol and the “unfolding enthalpy (van 't Hoff)” value came to 418 kJ/mol.

B2: Chemotaxis protein CheY wild type, Q56312 (protein)
chain: MGKRVLIVDDAAFMRMMLKDIITKAGYEVAGEATNGREAVEKYKELKPDIVTMDITMPEMNGIDAIKEIMKIDPNAKIIVCSAMGQQAMVIEAIKAGAKDFIVKPFQPSRVVEALNKVSK
Take B2: under setting [3], the “heat capacity change of unfolding” value came out at 1.17 kcal/mol/K and the unfolding free energy came to 39.9 kJ/mol. For the setting “Thermotoga maritima (strain ATCC 43589 / DSM 3109 / JCM 10099 / NBRC 100826 / MSB8), pH 6, Thermal, CD, sodium phosphate 50 mM, reversible: yes”, the melting temperature (Tm) is 101 °C.

B3: Gastricsin wild type, P30879 (protein)
chain: SVIKVPLKKLKSIRQAMKEKGLLEEFLKTHKYDPAQRYRIGDISVALEPMAYLEAAYFGEISIGTPPQNFLVL
For B3, under setting [4], the Tm was 64.5 °C, the “heat capacity change of unfolding” value is 6.1 kcal/mol/K, the “unfolding enthalpy (calorimetric)” value came to 1070 kJ/mol and the “unfolding enthalpy (van 't Hoff)” value is 548 kJ/mol.

B4: Subtilisin inhibitor wild type, P01006 (protein)
chain: MRNTGAGPSPSVSRPPPSAAPLSGAALAAPGDAPSALYAPSALVLTVGKGVSATTAAPERAVTLTCAPGPSGTHPAAGSACADLAAVGGDLNALTRGEDVMCPMVYDPVLLTVDGVWQGKRVSYERVFSNECEMNAHGSSVFAF
Take B4: the Tm is, setting by setting: (Streptomyces albogriseolus, pH 2.45, Thermal, CD, glycine 25 mM, reversible: yes) 21.6 °C; (Streptomyces albogriseolus, pH 2.72, Thermal, CD, glycine 25 mM, reversible: yes) 31.6 °C; (Streptomyces albogriseolus, pH 2.87, Thermal, CD, glycine 25 mM, reversible: yes) 35.7 °C; (Streptomyces albogriseolus, pH 3.21, Thermal, CD, glycine 25 mM, reversible: yes) 45.8 °C. Moreover, for the setting “Streptomyces albogriseolus, pH 3.21, 20 °C, Thermal, CD, glycine 25 mM, reversible: yes”, the unfolding free energy came out at 17 kJ/mol.

B5: Malate dehydrogenase, cytoplasmic wild type, P11708 (protein)
chain: MSEPIRVLVTGAAGQIAYSLLYSIGNGSVFGKDQPIILVLLDITPMMGVLDGVLMELQDCALPLLKDVIATDKEEIAFKDLDVAILVGSMPRRDGMERKDLLKANVKIFKCQGAALDKYAKKSVKVIVVGNPANTNCLTASKSAPSIPKENFSCLTRLDHNRAKAQIALKLGVTSDDVKNVIIWGNHSSTQYPDVNHAKVKLQAKEVGVYEAVKDDSWLKGEFITTVQQRGAAVIKARKLSSAMSAAKAICDHVRDIWFGTPEGEFVSMGIISDGNSYGVPDDLLYSFPVTIKDKTWKIVEGLPINDFSREKMDLTAKELAEEKETAFEFLSSA
B5: under “Sus scrofa, pH 7.5, 25 °C, GdnHCl, Fluorescence, TEA 50 mM, MgCl2 20 mM, transition: 3”, the unfolding free energy was 24.7 kJ/mol and 26.8 kJ/mol.

B6: Inorganic pyrophosphatase wild type, P38576 (protein)
chain: MANLKSLPVGDKAPEVVHMVIEVPRGSGNKYEYDPDLGAIKLDRVLPGAQFYPGDYGFIPSTLAEDGDPLDGLVLSTYPLLPGVVVEVRVVGLLLMEDEKGGDAKVIGVVAEDQRLDHIQDIGDVPEGVKQEIQHFFETYKALEAKKGKWVKVTGWRDRKAALEEVRACIARYKG
Regarding B6, the Tm is 99 °C (Thermus thermophilus (strain ATCC 27634 / DSM 579 / HB8), pH 7, Thermal, CD, HEPES 20 mM, MgCl2 5 mM) and 86 °C (Thermus thermophilus (strain ATCC 27634 / DSM 579 / HB8), pH 7, Thermal, CD, HEPES 20 mM).

B7: Elongation factor Ts wild type, P43895 (protein)
chain: MSQMELIKKLREATGAGMMDVKRALEDAGWDEEKAVQLLRERGAMKAAKKADREAREGIIGHYIHHNQRVGVLVELNCETDFVARNELFQNLAKDLAMHIAMMNPRYVSAEEIPAEELEKERQIYIQAALNEGKPQQIAEKIAEGRLKKYLEEVVLLEQPFVKDDKVKVKELIQQAIAKIGENIVVRRFCRFELGA
In the case of B7, the Tm (Thermus thermophilus (strain ATCC 27634 / DSM 579 / HB8), pH 7, Thermal, CD, Phosphate 10 mM, reversible: No) was 115 °C.

B8: Dihydroneopterin aldolase wild type, P56740 (protein)
chain: MQDTIFLKGMRFYGYHGALSAENEIGQIFKVDVTLKVDLSEAGRTDNVIDTVHYGEVFEEVKSIMEGKAVNLLEHLAERIANRINSQYNRVMETKVRITKENPPIPGHYDGVGIEIVRENK
Consider B8, for which the Tm by setting is: under setting [5], 42.5 °C; under setting [6], 43.5 °C. In addition, the “unfolding enthalpy (van 't Hoff)” value is, setting by setting: under setting [5], 590 kJ/mol; under setting [6], 630 kJ/mol.

B9: Ribonuclease H wild type, P29253 (protein)
chain: MNPSPRKRVALFTDGACLGNPGPGGWAALLRFHAHEKLLSGGEACTTNNRMELKAAIEGLKALKEPCEVDLYTDSHYLKKAFTEGWLEGWRKRGWRTAEGKPVKNRDLWEALLLAMAPHRVRFHFVKGHTGHPENERVDREARRQAQSQAKTPCPPRAPTLFHEEA
As for B9, under setting [7], the denaturant m value came to 2 kcal/mol/M and the unfolding free energy was found to be 53.6 kJ/mol. Besides, under setting [8], the Tm was 86 °C, the “heat capacity change of unfolding” value was found to be 1.8 kcal/mol/K and the “unfolding enthalpy (van 't Hoff)” value worked out at 548 kJ/mol.

B10: wild type, Q9WZ62 (protein)
chain: MKKLLAVSILLVSIVIFSGAIDEIKSRGYLLVGLSADFPPFEFVDENGNIVGFDVDLAKEIARRLGVELKIVDMTFDGLIPSLLTKKIDVIISGMTITEERKKVVAFSDPYFDAGQVIVVRKDSDFRPKTYEDLVGKTVAVQIGTTGDIEVSKYDGIKVVRFDKFTDAFLELKRGRADAVVLDSATARAFVAKNPDLVISSGVLSSEQYGIAVRKEDTDLLEFINSVLRELKKSPYDVLIEKWFSE
Take B10: under setting [9], the denaturant m value is 2.63 kcal/mol/M and 2.86 kcal/mol/M; the “denaturant midpoint (higher = more stable)” value was 5 M and 4.5 M; the unfolding free energy was 53.9 kJ/mol and 54.9 kJ/mol.
